assay: soluble fraction after stress (log2 fold change); higher = more stays soluble; pooled small domains, quantitative proteomics; conditions: stress: 75 degC
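Further: 20 min heating vs room temperature control held 20 min.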

Sequence	soluble fraction (log2)
HMTGREIDQLFSVVNDLKAKGVGMVFISHHLDEIARIADSVSVLRDGGFVAEVPASTPEKKLVTLMVGRDI	-0.228
HMTGWINVDKNWYYMNNSGSMARGMINVNNVSYYLDENGKMLSNTTVNVNGTDYRIDASGAMSQI	-0.182
HMTHEIKIKSHSLFASEGTKYQWYLNNIKINDATSQELEITSPGIYKLEMTNFDGDVIEKQIIVGLTNS	-1.91
HMTHHGHSIKRIRDMLGIKQETLAAELNMTQQAFSKLEQKEQIEDEMLDKIAKILHVSTEALKT	0.0102
HMTHPAHLARIGALIRSARQHEGLTQAQLAELLGTSQSAIHRIEQGGQNITLDMLTRISAALDSEIVTIG	-1.51
HMTHPQVEAYLDDLARMLADIDPGERDDILASVREHLDAEIAAGHGSDAVVNATLLRLGPPEQVAAAARTN	-0.0131
HMTIAFPSNDVDAVVGYFESRGFDRTASISTATVILQQAKIDGVKVFELIDTLQGMDKVQLSYIVTEILN	0.0608
HMTIATLGERIRKLRKERGLTLAELAGDKLSKGMLSLIENNRAKPSMESLEYIAKRLGVEPAELLE	0.0696
HMTIENTDTFLETLWEQVQRASVDENGIITSRVLIWDEGTKLDEILSWFDKRHSLGALYLQFG	-2.66
HMTIFGWQTDETGKWYRNADGTFFEAGWKEIDGAKYYFDENGYVKTGWLELDGKDYYFDEEGRYDSSKVR	0.299
HMTIGLLISKARTNSGLTQAELATRAGTSQAAIARYESDRVSPSVSTLERVLRAAGEELVISSS	-0.209
HMTINPFSTLAVRELEILHYLLNGHRTKEIATNLGLKMNTVSTIKSNIFEKVKADSFTHLLQLAHVHQIS	-1.07
HMTIQNSILDEIPNIGASRKRAILEAFGSVHRLRKASPEMISAKVEGIGPEMAQAIHDYLVKHPAT	0.066
HMTISAQAITPRLEVIKNFVLMEEWDAAQTQLEKLRSFTEIWSLDPLFSAMKKKDGQKISDWITGFIKDNM	-2.39
HMTISDEAMQAGRDAFIQALVAMGAEKNADAMASIEKALSADPGNKEYLATRDLIKKSMGMKK	0.981
HMTISGSDLKAQREALNIPLERIAKETRIRLSILQDLEDEEYSELSSSAQTKGFLRLYADYLSSHKQRLG	-1.06
HMTITDDETHKVLEEGASRMSEGLTFRDLVDLDRLHLTARGVIQKVLNENRIDADVDTIANMAQKLVARVS	-0.0881
HMTKAEVLLDLQQRIISEEFLPGSWLVERDLSSEYGLSRTPIREILNKLVILGLISVQKNRGYQVR	-1.29
HMTKAILTANDVRNGDIVFWTADQRWSTSIDDAAIGYGKDDTDQLADAGKQAEAANTVVGAYLIALR	-0.102
HMTKASEELYFRLKEELGTGVIVEHKKYGEGVVTQLDDRLVHIMFQDDTLRMMDLKILANAGLLKVK	-1.57
HMTKDYVVIYEGLAQTEAVEILGKLQEMGVSAKVDHNDSILVLKDEEDQIRMALATEGYPKS	0.158
HMTKEEKEKREKYEKLMKKADELVTAKNHKEAVTVLGQAKAYANPQQTKEIEEKIKAQTAELDKG	0.548
HMTKGVQMFAEQLKRTRQSRHYSQAEIASKLGVTQQAIAKWETGVSTPSPTSISKLSDILGISTDVLLKGA	0.0396
HMTKIAFPQMLNKYRLQKNLTMEQLAEEVGKTKSTISKWEAGTRSPKIYEIEEIAKYFGVEPQTMMF	-0.107

Sequence	soluble fraction (log2)
HMTKINAPMPGNILDVKVNVGDHVEANQLVLMLEAMKMENEIFTPVAGTVVGVHVKKGDSVNSDDLLISI	-0.512
HMTKKEFLDILTESLAGNVPASEIEENIRYYKDYIENGEESEEKALEQLGDPHLIARTIIDSFIA	-0.0899
HMTKLLSALQADKFAKKLANDTNFGSNFARMGESAMDFTNRLVEELQRDEGKVANYMPYLTKLGF	0.204
HMTKLSPKEKSILHIIGDNAGIKSGQIAKRLDIPSPTVKRILSDLVSQNLIEKFGTGPGTNYSI	-0.0131
HMTKLTTDERSVYLHIQNKPGVSASSIREALGYKKSKLTSILAQLLEVHKIIDTEGTGKSLKYIL	0.0994
HMTKMTPNRQLVLSVLQSSGKPLSAYELLDRLREQGTQWQPPTAYRALDYLVEQGLAHYLQSIQKYV	-1.73
HMTKNEFLASFQNELQKRHIPDWEDVVSEYEQHFALKQADGFSEEEIAAKLGAPAELAAQFEA	0.155
HMTKQIILVHVAGKVKKPDVYPLLQGSRVADAIKAAGGAKKGVELNDINLARVLIDGEQVFVGYVPE	-2.2
HMTKQRSAIMNLLAERNTPLTAEEIGEAIAPSYPKLALSTVYRNLELFTNAGLLEKSFFQDGITRYSLTK	-0.976
HMTKRTEPSILQNFDTEIAELIAKNRGISIMDALRIFLASKTHEMLENDEMKLWYFSPLAVFDMWENE	0.318
HMTKSIDFDFREDGVYIKADKDVTIVDIVTKIDLRRIQSVDLTKIKQMLEIGSLDNWIKIAEPQMEK	-2
HMTKSTLQRQKIIADLIESGNISSQNQLKGLLKKNSLLITQATLSRDLSELGAIKKRQKDGLLVYVLPK	-0.365
HMTKTKADKIDYAIGDSGTEPPTEDKWTDLAHLPLIKAGQFQWTRRTEYYSDGSTAVSYNIAKSE	0.096
HMTKYKEIVDQLRTNIYEGVFPALSKLPEQTALAKRFQTSRMTIQKALNQLKQEGLISTKRGHGTYVNSAT	-0.74
HMTKYVEGQKYVFEFRDGTITIGTYLRTGEGNIYIKDLSGEDIYIPKIMIAQIHLATDDNVKGDEFWF	-1.26
HMTLDSLEKLSVNDLEKMLVNMPVGYKTIFLLSVIDEYSHKEIGELLGITPETSRSQLFRAIKWIKTNIF	-0.631
HMTLGARTLAAIQSLPKVQQAVFTMKHFEGLKYREISQITGTSEGALKASYHIALEKIKAFLREK	-2.18
HMTLGEHILQYRTARGWSQEDLANALEVSRQSVSKWETDASTPELDKIVRLSEIFQVSIDELVTGKA	-0.316
HMTLGENLQNLRKEAGLSQEQVAQQLFVSRQTVSKWENNLAEPGVENLKALARLYGVTLDRLVGM	-0.223
HMTLKVQLSEISKMVSLSYIAKKYFNKSQSWLSQRINGNTIHNKPAKFTSEELATLQFALKDIGNILNSTV	-2.6
HMTLLVPASKEAILGGLAKIDALKVILKPEKDYSKTHAMTIGTKDEVIAKLDSFLSGMDSEKNQVLIQEYM	0.456
HMTLSDIGHAVRTRRTELGLSQVQLARLSGLSRQTLVGLENGTLNDLGINRVAQLLAVLGLDAP	-2.02
HMTLSHAINRLRLNANMSQEQFAGLFHVSQQSVQKWESGDSVPELSKLIAIAKHFGISLDALILGN	-2.52
HMTLTEQQITDNYKELRKIINDTFSGLRLDKLNHMYDDLEDRMVVAPASSVEHYHNSKVGGYVEHILHVI	-0.124

Sequence	soluble fraction (log2)
HMTLTIEDGYVNAKLKTTVEGLAEDSTIKVDSIEYTNAGKNDILTVFVEDKPYRVEKYKINIAPEDS	0.139
HMTLVSALDQKTKDSAYYRGTYLAGKISAGKMTKQEAVADIMKNYDGNTAAMKVAAEKAGVSDLLSQTVL	0.0489
HMTMKQVFIETDANVNQKIMLNEKEAHHLFDVLRTSDKETIRVVTNTSQVFLARVQQKPYIYLFDKMTVE	-2.49
HMTMNYFIIENNQQVGPLTLEQLVARNITSDTLVWKEGMEDWQPAWKVDELHTVLDQIRANAEQ	-0.00196
HMTMVVIMNADATQADIEGVISAIEEKGLEAKVMEGAHQKIVGVIGDKTKLAATPLDAMHGVETTVAIS	-0.244
HMTNATVGQIKKLARASILYGNSNLSGNRYTYKANTTVTILQNISSNVDKIRVNVTGRVAYIDNSNYSSST	-3.59
HMTNEQLSKAKSWVQIAVYAAEKLYGAGNGDQKLVYAEEILRKHGIRLDTATLKAMIDAQIKEMEN	-1.01
HMTNEWRKILSNLNGKYQIVMELFYVDGFSTKEIARMLHITEVNVRSRMVRGRKQLEQILTVR	-0.0301
HMTNPPITTEARNLVVEQLKELNALHPEKARELADSYKKEFNVPKVIGHITEARHGEFLALAISKIDES	-0.241
HMTNPPTPADTLFNTVRGVLQSILKSPMKDTEVASALNVSKAQARSWLQRLSDEGLIEKRKNPTAYVL	-0.592
HMTNTYEVIKNDIIFGVLPPLKKLKLLELKKKYITSVSTLREILSRLSGDGFVVSKEQKGFYVSAV	-0.0741
HMTNVNSLIGKKAIVIQDIDNLKSTGQVKIGGEIWSAQSESNDIISKDTEVEIVKIDGVKLIVRLVPV	-0.153
HMTNYNTEKIIPEEQAGKRLDVVLANIFPEFSRSRLKNWIIDGFILVDGKVLRPRDFVTGGELVSIDVIV	-0.123
HMTPADEAGNDLDIGQTVKILRRVSEGQYEVSYRGTTWQARALNAQAAVEPSFAVIGGKEGNILLVHL	-0.202
HMTPDVAEFRERLRQILPGEQIEVRTANDGIVLSGTVSSIARLDAALQLAERYAPSRVSNLMSVG	0.00274
HMTPEPVREALTFQEGRVFALAAKNMTNAEIAQSLSLKLKTVENYMSIIYQKLALKNRYELLVYARKSGV	-0.576
HMTPESSLHSGLGKILHDALTAKIQLTNFEAKFLSDMQSKYDLNGSFSWLSSKQQTTLEKILAKYGR	-1.98
HMTPFLVRVDISDLNIRTGAGTNYSRTGQYTGKGIFTILEVKSGQGSDAGWGRLKSGAGWISLDYTTR	-2.84
HMTPIELIEKTIELIENERKVQKLQQKELALKADIPFPTYKDFIYKKRASLENILKLFIALRLF	-0.384
HMTPKVAVPSFVGWKFEDVERQLGTMGLIRGKVDNHPSEEYSEGRVIWQSVLGEVEKGKVIDFWVSTGPE	0.0612
HMTPNATWQDDAQSLLRDLIQHQPVLIQISAAKRLRDQAEQISRITGGDTVTRDHVEAAGHALGMGVT	-0.0233
HMTPPLSKIRNMTPDQQRSSVIEARKKGYNLLQLEGLAKAQGATPADLLVLRNAWAQSEFDQKR	0.067
